# How the values were obtained:
# [1] = biological target: ACE2 on Vero-E6 cells (African green monkey (endogenous in Vero-E6)); assay: flow cytometry on cells
# [2] = biological target: human ACE2-Fc (human) (UniProt Q9BYF1); assay: BLI
substance,measurement,setting,value
soluble epitope-tagged RBD of Wuhan-Hu-1 SARS-CoV-2 (domain or fragment),EC50,[1],17.4 nM
same,Kd,[2],9.3 nM

# Reference: paper PMC9333441
